From patent US20040005636A1, “Method for obtaining the binding affinities of a peptide library to a protein” (priority 2002, published 2004)
Ends that are not written are not given here.

How the values were obtained:
[1] = biological target: T1, hERα-LBD (ligand binding domain of estrogen receptor α) (human, UniProt P03372 297-554); assay: fluorescence polarization, labelled peptide 10 nM, hERα-LBD titrated, estradiol present; 100 may stand for above the assay limits
T1 construct: Assayed with estradiol, diethylstilbestrol, genistein or tamoxifen present; the ligand is named under assay in each row
T1 sequence (looked up): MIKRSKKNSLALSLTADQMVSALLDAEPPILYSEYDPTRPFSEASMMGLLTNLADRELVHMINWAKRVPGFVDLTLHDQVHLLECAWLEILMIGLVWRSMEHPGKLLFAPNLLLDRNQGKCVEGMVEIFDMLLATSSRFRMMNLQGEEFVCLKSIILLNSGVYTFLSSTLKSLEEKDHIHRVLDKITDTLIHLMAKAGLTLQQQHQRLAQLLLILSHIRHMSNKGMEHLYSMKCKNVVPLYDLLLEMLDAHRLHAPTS
Experimental: (§1) The concentration of protein varied between 0.001-20 μM in the following way. In 96 well plates, hTRβ-LBD or hERα-LBD was serially diluted from 40 μM to 0.002 μM in binding buffer (50 mM Sodium Phosphate, 150 mM NaCl, pH 7.2, 1 mM DTT, 1 mM EDTA, 0.01% NP40, 10% glycerol), containing 200 μM ligand (T₃, for TRβ, or estradiol, diethylstilbestrol, genistein or tamoxifen for ERα).
(§2) Subsequently 10 μL of diluted protein was added to 10 μL of fluorescent coregulator peptide (20 nM) in 384-well plates yielding final protein concentrations of […] and 10 nM fluorescent peptide concentration. The samples were allowed to equilibriate for 30 minutes. Binding was then measured using fluorescence polarization (excitation λ at 485 nm, emission λ at 530 nm) on an Analyst AD (available from Molecular Devices).
(§3) All experiments were carried out in quadruplicate, with each iteration containing the positive and negative controls, and 10-12 dose points. The data were then fit using Klotz plots to determine IC₅₀ values using nonlinear regression analysis that fits the data to a modification of the model of Heyduk and Lee. (Heyduk et al., Proc. Natl. Acad. Sci., (1990), 1774; Heyduk et al., Nature, (1993), 364, 6437; Heyduk et al., Methods Enzymol., 274, 492. Further analysis was conducted using Hill and Scatchard plots to confirm number and homogeneity of binding sites as discussed hereinbelow.

[2] = biological target: T1, hERα-LBD (ligand binding domain of …); assay: fluorescence polarization, labelled peptide 10 nM, hERα-LBD titrated, genistein present; 100 may stand for above the assay limits
Experimental: as §1, §2, §3

[3] = biological target: T2, hTRβ-LBD (ligand binding domain of thyroid hormone receptor β) (human, UniProt P10828 202-461); assay: fluorescence polarization, hTRβ-LBD titrated, T3 present; Table 3 prints >AL (assay limits) for this pair
T2 construct: Assayed with the small-molecule ligand T3 present
T2 sequence (looked up): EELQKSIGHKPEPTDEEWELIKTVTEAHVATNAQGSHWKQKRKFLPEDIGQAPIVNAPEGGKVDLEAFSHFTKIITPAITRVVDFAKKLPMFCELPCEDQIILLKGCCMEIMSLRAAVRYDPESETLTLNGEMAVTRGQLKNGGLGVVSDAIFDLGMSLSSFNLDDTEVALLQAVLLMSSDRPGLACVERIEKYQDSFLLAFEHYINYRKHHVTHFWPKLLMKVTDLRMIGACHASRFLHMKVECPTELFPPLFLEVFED
Experimental: as §1, §2, §3

[4] = biological target: T1, hERα-LBD (ligand binding domain of …); assay: fluorescence polarization, hERα-LBD titrated, estradiol present; repeats Table 4; 100 may stand for above the assay limits
Experimental: as §1, §2, §3

[5] = biological target: T1, hERα-LBD (ligand binding domain of …); assay: fluorescence polarization, labelled peptide 10 nM, hERα-LBD titrated, diethylstilbestrol present; 100 may stand for above the assay limits
Experimental: as §1, §2, §3

Kd [1]: 100 µM
Kd [2]: 100 µM
Kd [3]: 100 µM
Kd [4]: 100 µM
Kd [5]: 100 µM
B1: SRC3-3 coregulator peptide (peptide)
peptide: C(5‑iodoacetamidofluorescein)KKENNALLRYLLDRDDPSD
